Assay results taken from publication PMC6459857.

How the values were obtained:
[1] = target: Cdk2 (UniProt P24941); experiment: single-molecule FRET, dyes at C54 and C93; settings: reference: unphosphorylated p27-C54-93; sites Y88
[2] = target: Cdk2 (UniProt P24941); experiment: single-molecule fluorescence anisotropy, BODIPY at C93; settings: reference: unphosphorylated p27-C93; sites Y88

other: fraction in released minor state [1]	other: fraction in flexible state [2]	Substance
weaker; reference 17	–	p27Kip1 (p27) 1-198 (from UniProt P46527) pY88-p27-C54-93
–	weaker; reference 33	p27Kip1 (p27) 1-198 (from UniProt P46527) pY88-p27-C93
